According to the supplement of paper PMC10567573:

B1: PSD2 (parent)
chain: LTHFSRRYCQCNPDDSTSEDGIHT
B2: C22orf31 (parent)
chain: YSLELGKAIKQKLWEALCSQGAIS

Variants of: B1
Assay: protein stability index of a GFP-peptide fusion (GPS, HEK-293T) (PSI 1-6); higher = more stable
Conditions: c terminus: a fixed tail appended
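Note: lentivirally expressed fusions sorted by FACS into six bins by GFP to DsRed ratio, PSI derived from sequencing read proportions per bin multiplied by bin number.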

Protein stability index, by site and new letter:
E19: I 2.2 | K 2.81 | L 2.15 | M 1.94 | N 2.84 | P 2.37 | Q 3.39 | R 1.59 | S 2.44 | T 3.02 | V 3.33 | W 1.87 | Y 1.93
D20: C 3.98 | E 3.64 | F 2.69 | G 2.71 | H 2.99 | I 1.97 | K 2.74 | L 2.31 | M 2.65 | N 2.5 | P 2.35 | Q 2.61 | R 2.27 | S 2.42 | T 2.86 | W 1.46 | Y 1.81
G21: A 3.57 | C 2.91 | D 3.73 | E 4.26 | F 2.69 | H 3.34 | I 2.63 | K 2.95 | L 3.25 | M 2.86 | N 3.33 | P 3.57 | Q 3.25 | R 2.93 | S 3.64 | T 4.09 | V 2.79 | W 1.96 | Y 2.68
I22: A 3.91 | D 4.27 | E 3.87 | F 2.72 | G 3.66 | H 3.7 | K 3.12 | L 3.24 | M 3.49 | N 3.98 | P 2.9 | Q 3.85 | R 3.22 | S 3.87 | T 3.59 | V 3.71 | W 2.43 | Y 3.29
H23: A 3.66 | C 3.16 | D 3.58 | E 3.91 | F 2.01 | G 3.69 | I 3.21 | K 2.92 | L 3.73 | M 3.82 | N 3.64 | P 3.9 | Q 3.73 | R 2.95 | S 4.2 | T 2.75 | V 2.93 | W 2.62 | Y 3.58
T24: A 3.46 | C 2.68 | D 3.86 | E 4.08 | F 2.08 | G 3.27 | H 2.5 | I 3.05 | K 2.61 | L 2.38 | M 2.52 | N 3.4 | P 3.82 | Q 3.37 | R 2.27 | S 3.02 | V 3.36 | W 2.26 | Y 2.34

Variants of: B2
Assay: as above
Conditions: c terminus: a fixed tail appended

Protein stability index of substitutions, site by site:
Y1: A 1.69 | C 2.58 | D 1.87 | E 1.22 | F 2.8 | H 2.79 | I 3.2 | K 3.44 | L 2.91 | N 2.16 | P 2.12 | Q 2.81 | R 2.88 | T 3.1 | V 2.56
S2: A 1.79 | C 2.15 | D 1.56 | E 1.59 | G 2.35 | H 2.43 | K 2.68 | M 2.38 | N 2.79 | P 2.3 | Q 1.57 | R 2.42 | T 2.86 | V 1.12 | Y 3.28
L3: A 2.39 | D 1.38 | E 2.53 | F 2.43 | G 1.43 | H 1.66 | I 1.79 | K 2.03 | M 2.18 | N 2.19 | P 1.64 | S 1.75 | T 1.89 | V 3.15 | Y 2.44
E4: A 2.96 | C 2.69 | D 3.44 | F 3.85 | G 1.56 | H 2.7 | I 3.45 | K 3.04 | L 2.69 | M 2.42 | N 3.57 | Q 3.4 | S 1.88 | V 3.23 | W 3.56 | Y 3.11
L5: A 1.83
